First the molecules themselves.
B4: full length TNF-gamma-beta expressed on the cell surface (ligand, human, UniProt O95150 1-251, looked up)
chain: MAEDLGLSFGETASVEMLPEHGSCRPKARSSSARWALTCCLVLLPFLAGLTTYLLVSQLRAQGEACVQFQALKGQEFAPSHQQVYAPLRADGDKPRAHLTVVRQTPTQHFKNQFPALHWEHELGLAFTKNRMNYTNKFLLIPESGDYFIYSQVTFRGMTSECSEIRQAGRPNKPDSITVVITKVTDSYPEPTQLLMGTKSVCEVGSNWFQPIYLGAMFSLQEGDKLMVNVSDISLVDYTKEDKTFFGAFLL
notes: whole, on cells; also called TNF-gamma-beta expressing cells

Test [1] deals with T1, RIP (UniProt Q13546 1-671, limits assumed).
T1 construct: 35S-labeled by in vitro translation for the GST pull-down; also called myc-RIP
T1 sequence (looked up): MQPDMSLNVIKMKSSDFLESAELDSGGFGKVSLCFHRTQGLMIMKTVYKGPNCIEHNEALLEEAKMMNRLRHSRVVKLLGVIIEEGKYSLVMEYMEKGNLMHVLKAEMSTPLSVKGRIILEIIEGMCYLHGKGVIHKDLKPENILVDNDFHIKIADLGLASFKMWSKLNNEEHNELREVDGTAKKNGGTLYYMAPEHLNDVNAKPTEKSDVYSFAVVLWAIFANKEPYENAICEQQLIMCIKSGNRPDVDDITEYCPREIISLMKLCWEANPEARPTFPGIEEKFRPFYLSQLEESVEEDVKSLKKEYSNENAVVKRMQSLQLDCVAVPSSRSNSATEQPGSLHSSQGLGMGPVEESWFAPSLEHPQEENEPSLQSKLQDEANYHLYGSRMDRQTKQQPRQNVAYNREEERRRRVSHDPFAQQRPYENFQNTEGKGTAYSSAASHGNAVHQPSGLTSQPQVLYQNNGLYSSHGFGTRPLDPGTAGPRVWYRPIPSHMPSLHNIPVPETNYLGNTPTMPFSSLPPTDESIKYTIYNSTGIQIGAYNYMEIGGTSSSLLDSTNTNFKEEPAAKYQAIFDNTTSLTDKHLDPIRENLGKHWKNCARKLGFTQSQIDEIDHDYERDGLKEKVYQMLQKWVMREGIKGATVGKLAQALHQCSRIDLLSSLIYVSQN
The test can be described thus: GST pull-down of in vitro translated 35S-labeled protein, SDS-PAGE and autoradiography. The procedure: (§1) In vitro binding experiments were performed as described previously (A. M. Chinnaiyan et al., Cell 81: 505-12 (1995); M. P. Boldin et al., J Biol Chem 270: 7795-8 (1995); F. C. Kischkel etal., EMBO 14: 5579-5588 (1995)). […] Following translation, equal amounts of total ³⁵S-labeled reticulocyte lysate were diluted into 150 μl GST binding buffer (50 mM Tris, pH 7.6,120 mM NaCl, 1% NP-40) and incubated for 2 hrs. at 4° C. with the various GST fusion proteins complexed to beads, following the beads were pelleted by plus centrifugation, washed three times in GST buffer, boiled in SDS-sample buffer and resolved on a 12.5% SDS-PAGE. Bound proteins were visualized following autoradioraphy at −80° C. […] After the beads were washed, retained proteins were analyzed by SDS-PAGE and autoradiography. The gel was Coomassie stained to monitor equivalency of loading.
(§2) As an initial screen, in vitro translated radiolabeled DAMs were precipitated with various glutathione S-transferase (GST) fusion proteins immobilized on glutathione-Sepharose beads.

Test [2] deals with T2, FADD (UniProt Q13158 1-208).
T2 construct: 35S-labeled by in vitro transcription-translation for the GST pull-down; also called AU1-FADD; FADD/MORT1
T2 sequence (looked up): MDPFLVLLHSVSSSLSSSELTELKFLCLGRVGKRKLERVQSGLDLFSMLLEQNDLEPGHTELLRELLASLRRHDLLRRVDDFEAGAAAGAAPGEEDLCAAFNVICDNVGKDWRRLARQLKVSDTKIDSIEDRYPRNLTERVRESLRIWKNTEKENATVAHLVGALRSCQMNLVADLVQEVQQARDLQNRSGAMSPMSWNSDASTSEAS
Described as above. The procedure: as §1, §2

Test [3] addresses T3, recombinant, untagged TNF-gamma-beta protein (aa 72-251) from E. coli (human, UniProt O95150 72-251).
T3 construct: Purified from E. coli
T3 sequence (looked up): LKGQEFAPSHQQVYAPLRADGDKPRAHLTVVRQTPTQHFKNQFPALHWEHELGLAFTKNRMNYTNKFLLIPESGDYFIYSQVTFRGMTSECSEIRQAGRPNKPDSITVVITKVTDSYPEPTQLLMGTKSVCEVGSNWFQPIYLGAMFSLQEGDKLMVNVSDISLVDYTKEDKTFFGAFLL
The test can be described thus: BIAcore 3000 (SPR), receptor-Fc amine-coupled to CM5 chip, TNF-gamma-beta in flow. The procedure: (§3) TNFR-Fc were covalently immobilized to the BIAcore sensor chip (CM5 chip) via amine groups using N-ethyl-N′-(dimethylaminopropyl) carbodiimide/N-hydroxysuccinimide chemistry. […] The amount of bound protein was determined during washing of the flow cell with HBS buffer (10 mM HEPES, pH 7.4, 150 mM NaCl, 3.4 mM EDTA, 0.005% Surfactant P20). The flow cell surface was regenerated by displacing bound protein by washing with 20 microliters of 10 mM glycine-HCl, pH 2.3. For kinetic analysis, the on and off rates were determined using the kinetic evaluation program in BIAevaluation 3 software using a 1:1 binding model and the global analysis method.
(Surface plasmon resonance follows binding to a sensor surface in real time, without labels.)

Test [4] deals with T4, FLAG-tagged soluble form of TNF-gamma-beta (aa 72-251) (human, UniProt O95150 72-251).
T4 construct: also called FLAG-TL1β; FLAG-TNF-gamma-beta; not shown: FLAG tag of vector pFLAGCMV1
T4 sequence (looked up): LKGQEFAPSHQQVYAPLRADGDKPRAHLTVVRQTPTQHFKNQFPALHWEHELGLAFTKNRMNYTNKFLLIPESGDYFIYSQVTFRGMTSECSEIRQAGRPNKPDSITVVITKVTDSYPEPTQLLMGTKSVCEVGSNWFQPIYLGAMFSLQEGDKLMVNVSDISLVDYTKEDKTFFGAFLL
The test can be described thus: co-immunoprecipitation with protein A-Sepharose, anti-Flag M2 immunoblot. An excerpt:
The beads were then precipitated and washed extensively with PBST buffer (PBS, 0.5% Triton X-100) before boiled in SDS-sample buffer. Proteins were resolved on 4-20% Tris-Glycine gels (NOVEX), transferred to nitrocellulose membranes, and blotted with anti-Flag M2 monoclonal antibody (1 microgram/ml, Sigma) and horseradish peroxidase (HRP)-conjugated goat anti-mouse IgG antibody (0.5 microgram/ml).
On the technique in general: Immunoblotting shows a protein as a band on a membrane.

Test [5] has as its target B4. The test can be described thus: flow cytometry on HEK293F stable transfectants expressing full length TNF-gamma-beta. The procedure: (§4) TR6 has been previously described as a decoy receptor (Pitti et al., Nature 396:699-703 (1998); Yu et al., J. Biol Chem. 274:13733-6 (1999)) capable of competing with Fas and HveA for binding of FasL and LIGHT, respectively.
(§5) One million cells, in 0.1 ml of FACS buffer (PBS, 0.1% BSA, 0.1% NaN₃), were incubated with 0.1-1 microgram of protein or antibody at RT for 15 min. The cells were washed with 3 ml of FACS buffer, reacted with biotinylated primary antibody, and stained with PE-conjugated secondary antibody at RT for 15 min. Cells were then washed again, resuspended in 0.5 microgram/ml of propidium iodide, and live cells were gated and analyzed on a FACScan using the CellQuest software (BD Biosciences).
(In general: In flow cytometry, cells or beads pass a laser one at a time.)

For test [6], the target named is T5, Fc-fusion form of the extracellular domain of DR6 (UniProt O75509 42-349, limits assumed).
T5 construct: extracellular domain; not shown: Fc
T5 sequence (looked up): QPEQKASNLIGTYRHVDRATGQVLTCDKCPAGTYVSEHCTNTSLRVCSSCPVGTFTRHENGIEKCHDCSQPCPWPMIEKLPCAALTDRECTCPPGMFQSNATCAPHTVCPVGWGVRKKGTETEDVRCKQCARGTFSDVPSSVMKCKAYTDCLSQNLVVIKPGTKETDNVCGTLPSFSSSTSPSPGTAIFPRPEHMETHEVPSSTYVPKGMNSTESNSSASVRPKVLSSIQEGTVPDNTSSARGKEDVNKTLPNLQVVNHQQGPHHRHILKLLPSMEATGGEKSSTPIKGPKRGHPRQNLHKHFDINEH
The description is as above. The procedure: as §4, §5

Test [7] has as its target T6, non-tagged form of TR6 (UniProt O95407 30-300).
T6 construct: also called TNFR-6 alpha; DcR3
T6 sequence (looked up): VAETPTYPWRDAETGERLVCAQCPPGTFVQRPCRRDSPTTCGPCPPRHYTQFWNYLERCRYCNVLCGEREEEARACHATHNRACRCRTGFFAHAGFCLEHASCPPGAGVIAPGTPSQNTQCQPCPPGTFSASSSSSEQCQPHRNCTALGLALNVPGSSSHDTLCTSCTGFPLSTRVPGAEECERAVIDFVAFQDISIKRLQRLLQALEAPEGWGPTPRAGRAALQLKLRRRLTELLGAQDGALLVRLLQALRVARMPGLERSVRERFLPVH
The test can be described thus: flow cytometry, competition with DR3-Fc for TNF-gamma-beta on HEK293F cells. The procedure: as §4, §5

The target of test [8] is T3, recombinant, untagged TNF-gamma-beta …. Description: BIAcore 3000 (SPR), DR3-Fc amine-coupled to CM5 chip, three batches of TNF-gamma-beta, 1:1 binding model; DR3-Fc; average of three batches of TNF-gamma-beta. The procedure:
as §3

Test [9] shares this target. Description: BIAcore 3000 (SPR), DR3-Fc amine-coupled to CM5 chip, TNF-gamma-beta 3-370 nM in flow, 1:1 binding model; DR3-Fc on the chip. The procedure:
as §3

Results on 5 molecules are retold here after patent US20030170203A1 (Human Genome Sciences, published 2003).

B1: GST fusion of the cytoplasmic domain of DR3 (amino acid residues 215-393 (SEQ ID NO:4)) (other)
chain: AGMEALTPPPATHLSPLDSAHTLLAPPDSSEKICTVQLVGNSWTPGYPETQEALCPQVTWSWDQLPSRALGPAAAPTLSPESPAGSPAMMLQPGPQLYDVMDAVPARRWKEFVRTLGLREAEIEAVEVEIGRFRDQQYEMLKRWRQQQPAGLGAVYAALERMGLDGCVEDLRSRLQRGP
notes: Made in E. coli BL21 (DE3) pLysS and immobilized on glutathione-agarose beads; The results paragraph calls it GST-DDCR (DDCR is the former name of DR3); also called GST-DR3; GST-DDCR; not shown: glutathione S-transferase from vector pGSTag
B1: the binding result in test [1] and in test [2] was “no binding” in each case.

B2: BCMA-Fc (Fc fusion, human, UniProt Q02223 1-54, looked up)
chain: MLQMAGQCSQNEYFDSLLHACIPCQLRCSSNTPPLTCQRYCNASVTNSVKGTNA
notes: Control receptor surface of the BIAcore analysis; not shown: Fc
As to B2, in [3], the binding result was “no binding (tested: 3-370 nM)”.

B3: extracellular domain of human TACI (aa 1-159) fused at its C-terminus to the Fc domain of human IgG1 (Fc fusion, UniProt O14836 1-159, looked up, not shown: a dimerising Fc or GST)
chain: MSGLGRSRRGGRSRVDQEERFPQGLWTGVAMRSCPEEQYWDPLLGTCMSCKTICNHQSQRTCAAFCRSLSCRKEQGKFYDHLLRDCISCASICGQHPKQCAYFCENKLRSPVNLPPELRRQRSGEVENNSDNSGRYQGLEHRGSEASPALPGLKLSADQ
notes: range 1-159; also called TACI-Fc
With B3, the binding result in [4] and in test [5] was “no binding” in each case.

Consider B4, for which the results for the binding result in [6] and in test [7] were “no binding” and “binds”, respectively.

B5: extracellular domain of human DR3 (aa 1-199) fused at its C-terminus to the Fc domain of human IgG1 (Fc fusion, not shown: a dimerising Fc or GST)
chain: QGGTRSPRCDCAGDFHKKIGLFCCRGCPAGHYLKAPCTEPCGNSTCLVCPQDTFLAWENHHNSECARCQACDEQASQVALENCSAVADTRCGCKPGWFVECQVSQCVSSSPFYCQPCLDCGALHRHTRLLCSRRDTDCGTCLPGFYEHGDGCVSCPTSTLGSCPERCAAVCGWRQ
notes: also called DR3-Fc; DR3.Fc
As for B5, the Kd in [8] is 6.45 nM. For the same molecule, in test [9], the koff was 0.00413 s⁻¹ and the kon was 639000 M⁻¹ s⁻¹.

What is called Kd is the free concentration of one partner at which half of the binding sites on the other are occupied at equilibrium, for simple one-to-one binding. In general, koff refers to the rate constant with which the complex falls apart. For orientation: kon means the rate constant with which the complex forms.
